Source: patent publication US20190194304A1

Target: C3d, P01024
Experiment: SPR, 0.5 µM FH with anti-FH.07 Fab′ (2 to 1 molar ratio) over immobilised C3d
Conditions: remark: other sources report otherwise

Sequence of C3d, P01024 (P01024 1002-1303 limits assumed): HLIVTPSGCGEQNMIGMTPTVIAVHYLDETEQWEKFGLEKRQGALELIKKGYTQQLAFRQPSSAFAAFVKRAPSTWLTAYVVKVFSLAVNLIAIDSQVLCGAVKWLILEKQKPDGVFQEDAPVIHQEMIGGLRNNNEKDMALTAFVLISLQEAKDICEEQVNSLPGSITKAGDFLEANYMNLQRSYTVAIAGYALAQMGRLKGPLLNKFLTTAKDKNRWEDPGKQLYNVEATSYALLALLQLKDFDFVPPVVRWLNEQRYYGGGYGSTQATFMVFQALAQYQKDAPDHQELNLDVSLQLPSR

B1: human factor H, P08603 19-1231 (protein, UniProt P08603 19-1231, looked up)
chain: EDCNELPPRRNTEILTGSWSDQTYPEGTQAIYKCRPGYRSLGNVIMVCRKGEWVALNPLRKCQKRPCGHPGDTPFGTFTLTGGNVFEYGVKAVYTCNEGYQLLGEINYRECDTDGWTNDIPICEVVKCLPVTAPENGKIVSSAMEPDREYHFGQAVRFVCNSGYKIEGDEEMHCSDDGFWSKEKPKCVEISCKSPDVINGSPISQKIIYKENERFQYKCNMGYEYSERGDAVCTESGWRPLPSCEEKSCDNPYIPNGDYSPLRIKHRTGDEITYQCRNGFYPATRGNTAKCTSTGWIPAPRCTLKPCDYPDIKHGGLYHENMRRPYFPVAVGKYYSYYCDEHFETPSGSYWDHIHCTQDGWSPAVPCLRKCYFPYLENGYNQNYGRKFVQGKSIDVACHPGYALPKAQTTVTCMENGWSPTPRCIRVKTCSKSSIDIENGFISESQYTYALKEKAKYQCKLGYVTADGETSGSITCGKDGWSAQPTCIKSCDIPVFMNARTKNDFTWFKLNDTLDYECHDGYESNTGSTTGSIVCGYNGWSDLPICYERECELPKIDVHLVPDRKKDQYKVGEVLKFSCKPGFTIVGPNSVQCYHFGLSPDLPICKEQVQSCGPPPELLNGNVKEKTKEEYGHSEVVEYYCNPRFLMKGPNKIQCVDGEWTTLPVCIVEESTCGDIPELEHGWAQLSSPPYYYGDSVEFNCSESFTMIGHRSITCIHGVWTQLPQCVAIDKLKKCKSSNLIILEEHLKNKKEFDHNSNIRYRCRGKEGWIHTVCINGRWDPEVNCSMAQIQLCPPPPQIPNSHNMTTTLNYRDGEKVSVLCQENYLIQEGEEITCKDGRWQSIPLCVEKIPCSQPPQIEHGTINSSRSSQESYAHGTKLSYTCEGGFRISEENETTCYMGKWSSPPQCEGLPCKSPPEISHGVVAHMSDSYQYGEEVTYKCFEGFGIDGPAIAKCLGEKWSHPPSCIKTDCLSLPSFENAIPMGEKKDVYKAGEQVTYTCATYYKMDGASNVTCINSRWTGRPTCRDTSCVNPPTVQNAYIVSRQMSKYPSGERVRYQCRSPYEMFGDEEVMCLNGNWTEPPQCKDSTGKCGPPPPIDNGDITSFPLSVYAPASSVEYQCQNLYQLEGNKRITCRNGQWSEPPKCLHPCVISREIMENYNIALRWTAKQKLYSRTGESVEFVCKRGYRLSSRSHTLRTTCWDGKLEYPTCAKR
With B1 the fold increase of the measured interactions (RU) with anti-FH.07 Fab′ against FH alone was > 2 fold.
